B1: PPFIA4 (parent)
chain: VMTLPSDLRKHRRKLLSPVSREEN
B2: ZNF449 (parent)
chain: RIHSGEEPHKCPECGKRFLRSSDL

Variants of: B1
Assay: protein stability index of a GFP-peptide fusion (GPS, HEK-293T) (PSI 1-6); higher = more stable
Conditions: c terminus: a fixed tail appended
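Further: lentivirally expressed fusions sorted by FACS into six bins by GFP to DsRed ratio, PSI derived from sequencing read proportions per bin multiplied by bin number.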

Protein stability index: each site, then its substitutions
R21: Y 3.34; W 3.32; I 3.9; K 4.44; H 4.17; D 4.16; A 4.18; L 3.84; Q 4.36; M 4.09; E 4.47; C 4.06; V 3.91; S 4.29; F 3.54; N 3.85; P 3.91; T 4.12; G 4
E22: W 2.23; D 3.5; I 3.02; P 2.85; Q 3.19; F 2.44; A 3.12; Y 2.93; L 2.26; V 3.86; S 3.68; K 3.67; C 2.8; T 3.22; R 3.66; H 3.52; M 3.25; N 3.27; G 3.16
E23: P 3.5; V 3.1; I 3.15; H 3.41; T 3.04; L 3.4; M 3.29; Y 2.96; G 2.94; Q 2.96; W 2.44; S 3.93; R 3.06; N 3.14; D 3.52; A 3.04; K 3.72; F 2.59; C 2.88
S20: L 3.44; I 3.84; N 3.91; H 3.18; A 3.98; F 2.54; R 3.84; C 2.69; T 3.75; D 4.01; P 3.67; Y 2.98; G 4.22; K 3.92; M 3.82; V 3.23; E 4.26; W 2.63; Q 4.17
N24: A 4.02; Y 3.02; G 3.23; C 3.33; S 3.91; H 3.88; F 2.44; T 3.73; R 3.73; I 3.34; D 4.33; M 3.07; V 3.27; P 3.45; E 4.31; L 2.94; Q 4.05; W 2.99; K 4.04
V19: S 4.21; N 3.91; T 4.18; G 4.31; C 3.17; A 4.06; D 4.57; I 3.8; E 4.21; W 2.52; R 3.69; Y 2.94; M 2.98; H 4.11; K 3.67; P 4.53; L 3.43; Q 4.31; F 2.85

Variants of: B2
Assay: as above
Conditions: c terminus: a fixed tail appended

Protein stability index: each site, then its substitutions
S4: M 2.55; P 3.16; I 3.07; F 2.3; G 3.06; H 3.18; W 2.5; N 4; K 3.19; Y 2.84; T 3.53; L 3.19; E 3.7; D 3.56; A 3.34; R 2.54; V 2.44; Q 4.12
G5: I 3.34; N 3.44; E 3.62; P 2.85; V 3.07; F 3.22; L 3.68; D 3.74; T 4.24; K 3.41; W 3.63; R 3.2; Q 3.82; Y 3.56; A 3.79; S 4.04; H 4.07; M 3.75
E6: I 3.09; D 3.25; R 3.24; K 2.88; L 2.92; Y 2.27; H 2.79; P 3.69; W 2.08; A 3.24; N 3.08; T 2.71; S 1.79; V 2.28; G 3.23; Q 3.1; M 2.57; F 2.95
C11: D 4.17; F 3.54; H 4.41; T 4.17; V 4.19; L 4.11; P 4.23; R 4.32; I 4.51; M 4.35; N 4.57; S 3.72; K 4.5; A 4.32; W 3.79; Y 4.21
P12: A 3.15; Q 3.33; D 4.36; W 2.05; K 3.2; C 3.32; I 2.94; T 3.76; H 3.24; S 3.66; V 3.5; N 4.18; M 3.36; E 4.41; R 2.92; F 3.29; Y 3.12; L 3.23; G 3.08
H9: C 4.35; M 3.42; T 3.44; W 2.73; D 3.5; R 3.18; I 4.09; K 3.83; P 3.2; Y 3.48; E 3.78; Q 3.19; F 3.95; S 3.28; A 3.42; V 4.15; G 2.99; L 2.19
K10: P 3.7; L 3.96; E 3.57; R 3.55; V 4.17; H 2.95; T 3.82; Q 3.39; G 3.82; I 3.74; N 3.42; S 3; A 3.35; M 3.17; D 4.19; W 3.72; Y 3.94
P8: K 2.51; N 3; Q 4.29; L 3.41; D 4.1; I 4.26; M 3.34; C 3.19; T 3.45; A 3.64; S 3.25; Y 3.57; F 2.44; H 3.18; E 3.44; W 3.72
E7: V 2.96; H 3.45; D 2.82; K 2.46; P 2.95; Q 3.26; M 3.22; R 1.89; Y 2.71; N 2.51; G 2.81; I 2.68; T 3.04; F 2.98; L 2.98; A 2.71; C 4.79
E13: G 3.21; A 2.72; F 3.77; D 2.59; I 3.26; H 3.34; C 3.71
I2: A 3.42; K 3.43; T 4.76; L 3.77; D 4.06; E 3.5; S 3.18; C 5.05; Q 3.91; M 3.48; W 3.9; N 4.19; P 3.57; F 3.1; Y 3.79; V 3.98; G 2.78; R 3.7; H 3.46
H3: C 3.76; R 3.02; L 3.69; D 3.85; P 3.69; G 2.72; V 3.34; Q 4.33; A 3.48; M 3.05; F 2.63; K 2.7; T 3.81; I 3.25; E 3.48; Y 3.32; N 3.55; S 3.74
R1: C 5.29; F 1.38; E 4.41; H 4.07; Q 4.11; K 3.6; Y 1.9; W 2.28; M 3.4; G 3.74; D 4.13; P 4.04; T 3.37; S 3.86; V 3.05; I 2.38; N 3.72; L 2.92; A 3.75

From the supplement of paper PMC10567573
